# According to the supplement of paper PMC10065799, “High-throughput profiling of sequence recognition by tyrosine kinases and SH2 domains using bacterial peptide display” (eLife, 2023):
# What was measured:
# EPHB2 = EPHB2 (UniProt P29323); assay: phosphorylation enrichment, bacterial display (enrichment ratio); higher = better substrate or ligand; peptides without Tyr show the background
# FGFR1 = FGFR1 (UniProt P11362); assay: as above
# FGFR3 = FGFR3 (UniProt P22607); assay: as above
# AncSZ = assay: as above
# Hck = Hck (UniProt P08631); assay: as above
# EPHB1 = EPHB1 (UniProt P54762); assay: as above
# Jak2 = Jak2 (UniProt O60674); assay: as above
# Fer (mouse) = assay: as above
# MERTK = MERTK (UniProt Q12866); assay: as above
# c-Src = assay: as above
# Fes = Fes (UniProt P07332); assay: as above
# Fyn = Fyn (UniProt P06241); assay: as above
# c-Abl (mouse) = assay: as above
# SHP2-C SH2 = assay: SH2 binding enrichment of the phosphorylated peptide, bacterial display (enrichment ratio); higher = better substrate or ligand; peptides without Tyr show the background
# Grb2 SH2 = Grb2 SH2 (UniProt P62993); assay: as above
# c-Src SH2 = assay: as above
# 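Wherever SH2 binding enrichment of the phosphorylated peptide, bacterial display is given: peptide library displayed on the E. coli surface as eCPX fusions, selected cells deep-sequenced, score is each peptide's frequency after selection divided by its frequency in the input.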
# 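Wherever phosphorylation enrichment, bacterial display is given: 11-residue human phosphosite peptides and single-mutation variants displayed on the E. coli surface, counted by deep sequencing, each peptide's frequency after selection divided by its frequency in the unselected input library; frequency after pTyr selection over input frequency; kinase dosed for 20-30% of maximal phosphorylation in three min.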
# Chain of Fyn (P06241 whole entry, looked up): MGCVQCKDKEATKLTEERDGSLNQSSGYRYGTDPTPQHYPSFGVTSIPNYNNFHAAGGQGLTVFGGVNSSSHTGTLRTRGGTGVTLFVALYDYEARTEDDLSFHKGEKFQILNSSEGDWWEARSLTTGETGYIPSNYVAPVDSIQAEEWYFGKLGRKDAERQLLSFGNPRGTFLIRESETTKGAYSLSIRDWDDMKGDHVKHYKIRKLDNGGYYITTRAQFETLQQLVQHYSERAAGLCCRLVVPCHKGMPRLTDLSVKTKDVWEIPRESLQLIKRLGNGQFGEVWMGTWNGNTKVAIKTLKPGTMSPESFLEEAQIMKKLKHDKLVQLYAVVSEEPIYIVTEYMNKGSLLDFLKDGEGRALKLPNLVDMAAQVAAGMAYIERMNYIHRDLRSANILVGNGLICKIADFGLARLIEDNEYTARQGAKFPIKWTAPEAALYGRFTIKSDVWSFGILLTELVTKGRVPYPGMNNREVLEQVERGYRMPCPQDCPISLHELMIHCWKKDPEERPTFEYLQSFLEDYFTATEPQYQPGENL
# Chain of MERTK (Q12866 whole entry, looked up): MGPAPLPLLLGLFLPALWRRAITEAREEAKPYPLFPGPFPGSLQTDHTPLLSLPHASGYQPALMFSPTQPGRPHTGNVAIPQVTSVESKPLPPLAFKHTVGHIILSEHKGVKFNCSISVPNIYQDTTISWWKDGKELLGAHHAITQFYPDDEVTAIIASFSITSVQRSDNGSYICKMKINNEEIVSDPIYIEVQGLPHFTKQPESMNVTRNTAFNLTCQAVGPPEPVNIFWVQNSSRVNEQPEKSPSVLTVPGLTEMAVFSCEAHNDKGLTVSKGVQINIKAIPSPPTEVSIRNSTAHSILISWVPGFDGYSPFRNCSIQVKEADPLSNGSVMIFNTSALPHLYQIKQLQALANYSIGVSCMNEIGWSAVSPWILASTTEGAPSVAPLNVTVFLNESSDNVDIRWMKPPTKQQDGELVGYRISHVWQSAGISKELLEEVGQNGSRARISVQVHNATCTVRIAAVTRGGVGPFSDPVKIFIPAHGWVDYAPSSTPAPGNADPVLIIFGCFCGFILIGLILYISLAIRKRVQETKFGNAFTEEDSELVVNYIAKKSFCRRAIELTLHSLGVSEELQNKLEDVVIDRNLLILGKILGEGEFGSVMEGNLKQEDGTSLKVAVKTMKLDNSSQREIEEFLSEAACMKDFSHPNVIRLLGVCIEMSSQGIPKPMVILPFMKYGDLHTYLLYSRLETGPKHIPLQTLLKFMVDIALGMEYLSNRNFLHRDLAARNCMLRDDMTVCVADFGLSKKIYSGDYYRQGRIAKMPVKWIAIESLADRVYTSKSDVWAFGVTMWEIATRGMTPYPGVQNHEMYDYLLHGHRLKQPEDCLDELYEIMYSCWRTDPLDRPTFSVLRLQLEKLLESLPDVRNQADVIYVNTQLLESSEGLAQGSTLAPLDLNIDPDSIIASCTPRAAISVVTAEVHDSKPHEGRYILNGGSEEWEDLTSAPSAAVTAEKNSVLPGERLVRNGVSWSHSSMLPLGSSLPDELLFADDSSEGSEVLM
# Chain of FGFR1 (P11362 whole entry, looked up): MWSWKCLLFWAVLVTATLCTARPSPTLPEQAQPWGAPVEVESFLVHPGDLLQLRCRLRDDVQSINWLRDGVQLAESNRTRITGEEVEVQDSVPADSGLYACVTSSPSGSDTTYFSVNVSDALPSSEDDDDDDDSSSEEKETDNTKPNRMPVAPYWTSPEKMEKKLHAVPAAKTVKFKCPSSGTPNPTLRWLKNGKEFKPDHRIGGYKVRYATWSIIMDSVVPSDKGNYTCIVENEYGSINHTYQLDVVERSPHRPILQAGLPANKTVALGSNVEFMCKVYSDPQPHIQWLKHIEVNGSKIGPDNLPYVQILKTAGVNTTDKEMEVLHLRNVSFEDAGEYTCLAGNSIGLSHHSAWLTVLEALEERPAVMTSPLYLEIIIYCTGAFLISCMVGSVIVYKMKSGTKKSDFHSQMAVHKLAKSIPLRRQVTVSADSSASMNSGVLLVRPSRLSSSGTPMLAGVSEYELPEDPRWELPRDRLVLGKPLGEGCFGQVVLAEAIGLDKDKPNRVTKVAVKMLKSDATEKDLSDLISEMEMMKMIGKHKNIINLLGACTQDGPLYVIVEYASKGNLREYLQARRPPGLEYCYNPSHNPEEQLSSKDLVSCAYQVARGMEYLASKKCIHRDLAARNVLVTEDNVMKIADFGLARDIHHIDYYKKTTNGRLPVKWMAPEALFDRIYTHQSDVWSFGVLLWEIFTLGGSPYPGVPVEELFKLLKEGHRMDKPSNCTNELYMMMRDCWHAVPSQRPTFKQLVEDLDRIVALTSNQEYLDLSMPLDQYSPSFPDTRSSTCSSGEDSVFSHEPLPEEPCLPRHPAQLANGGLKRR
# Chain of Hck (P08631 whole entry, looked up): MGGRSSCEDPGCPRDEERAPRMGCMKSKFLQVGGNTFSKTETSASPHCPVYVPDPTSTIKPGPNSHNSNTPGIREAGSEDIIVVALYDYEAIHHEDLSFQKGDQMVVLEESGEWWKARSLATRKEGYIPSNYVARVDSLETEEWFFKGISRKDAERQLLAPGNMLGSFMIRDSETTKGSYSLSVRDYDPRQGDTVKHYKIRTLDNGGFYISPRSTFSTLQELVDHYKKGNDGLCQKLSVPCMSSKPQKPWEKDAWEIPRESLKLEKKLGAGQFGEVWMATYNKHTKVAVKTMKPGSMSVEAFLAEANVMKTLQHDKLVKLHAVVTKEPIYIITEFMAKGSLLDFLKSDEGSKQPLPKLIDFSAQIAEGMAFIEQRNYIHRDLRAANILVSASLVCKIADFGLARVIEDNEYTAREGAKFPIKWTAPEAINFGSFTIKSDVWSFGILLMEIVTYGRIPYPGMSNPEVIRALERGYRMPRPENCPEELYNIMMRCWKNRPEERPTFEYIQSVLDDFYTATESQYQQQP
# Chain of EPHB1 (P54762 whole entry, looked up): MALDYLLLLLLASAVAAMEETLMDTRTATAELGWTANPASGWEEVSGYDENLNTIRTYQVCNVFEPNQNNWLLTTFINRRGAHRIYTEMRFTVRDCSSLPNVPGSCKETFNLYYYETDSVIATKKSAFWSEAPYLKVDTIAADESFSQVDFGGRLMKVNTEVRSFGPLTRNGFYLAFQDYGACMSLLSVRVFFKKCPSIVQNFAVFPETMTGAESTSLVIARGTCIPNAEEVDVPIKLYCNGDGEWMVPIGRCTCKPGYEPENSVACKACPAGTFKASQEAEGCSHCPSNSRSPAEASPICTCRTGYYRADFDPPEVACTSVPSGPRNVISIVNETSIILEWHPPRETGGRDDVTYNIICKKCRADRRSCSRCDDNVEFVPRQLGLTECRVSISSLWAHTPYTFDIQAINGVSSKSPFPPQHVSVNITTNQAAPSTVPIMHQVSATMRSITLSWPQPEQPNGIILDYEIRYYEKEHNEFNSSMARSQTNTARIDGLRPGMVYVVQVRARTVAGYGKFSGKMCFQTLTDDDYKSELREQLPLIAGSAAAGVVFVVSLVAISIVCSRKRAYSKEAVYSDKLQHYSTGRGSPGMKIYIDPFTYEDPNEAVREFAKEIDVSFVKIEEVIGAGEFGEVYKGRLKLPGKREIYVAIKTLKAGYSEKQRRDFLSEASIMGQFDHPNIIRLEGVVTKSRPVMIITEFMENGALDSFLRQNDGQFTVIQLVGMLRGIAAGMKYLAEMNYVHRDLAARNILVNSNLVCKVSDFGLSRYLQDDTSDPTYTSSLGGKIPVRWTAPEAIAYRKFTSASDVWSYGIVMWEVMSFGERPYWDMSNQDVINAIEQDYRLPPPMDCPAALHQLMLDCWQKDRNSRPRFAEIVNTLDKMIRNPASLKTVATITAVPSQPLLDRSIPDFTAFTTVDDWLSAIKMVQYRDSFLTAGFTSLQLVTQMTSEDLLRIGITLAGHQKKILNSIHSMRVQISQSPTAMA
# Chain of Fes (P07332 whole entry, looked up): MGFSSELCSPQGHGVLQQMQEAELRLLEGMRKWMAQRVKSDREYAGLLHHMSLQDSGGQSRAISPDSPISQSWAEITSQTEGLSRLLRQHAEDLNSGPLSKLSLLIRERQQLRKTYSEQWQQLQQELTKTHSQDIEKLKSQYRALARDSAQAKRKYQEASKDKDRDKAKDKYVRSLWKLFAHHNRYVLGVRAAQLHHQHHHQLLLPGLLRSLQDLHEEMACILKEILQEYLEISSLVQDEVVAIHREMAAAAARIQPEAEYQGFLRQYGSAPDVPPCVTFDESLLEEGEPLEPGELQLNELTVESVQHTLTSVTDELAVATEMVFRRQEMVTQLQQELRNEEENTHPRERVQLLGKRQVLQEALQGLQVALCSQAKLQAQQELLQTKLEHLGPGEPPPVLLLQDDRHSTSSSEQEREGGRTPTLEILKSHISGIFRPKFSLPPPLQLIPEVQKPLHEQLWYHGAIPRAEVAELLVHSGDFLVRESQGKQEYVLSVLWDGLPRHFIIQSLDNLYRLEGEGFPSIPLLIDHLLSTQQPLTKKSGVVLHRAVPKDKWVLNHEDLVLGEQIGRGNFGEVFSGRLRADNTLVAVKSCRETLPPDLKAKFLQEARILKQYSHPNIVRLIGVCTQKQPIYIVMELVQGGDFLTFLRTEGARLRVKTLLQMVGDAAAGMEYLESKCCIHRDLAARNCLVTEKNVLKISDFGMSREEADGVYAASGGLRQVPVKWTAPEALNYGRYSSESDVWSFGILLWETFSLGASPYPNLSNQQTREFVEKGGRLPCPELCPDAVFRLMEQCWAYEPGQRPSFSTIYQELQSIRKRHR
# Chain of Grb2 SH2 (P62993 whole entry, looked up): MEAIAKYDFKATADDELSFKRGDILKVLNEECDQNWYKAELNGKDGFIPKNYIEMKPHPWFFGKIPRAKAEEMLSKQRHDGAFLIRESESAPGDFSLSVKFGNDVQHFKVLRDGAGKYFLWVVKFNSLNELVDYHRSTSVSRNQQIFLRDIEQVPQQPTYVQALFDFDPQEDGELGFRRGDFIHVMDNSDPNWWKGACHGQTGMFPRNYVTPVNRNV
Sequence,phosphorylation enrichment (EPHB2),phosphorylation enrichment (FGFR1),phosphorylation enrichment (FGFR3),phosphorylation enrichment (AncSZ),phosphorylation enrichment (Hck),phosphorylation enrichment (EPHB1),phosphorylation enrichment (Jak2),phosphorylation enrichment (Fer (mouse)),phosphorylation enrichment (MERTK),phosphorylation enrichment (c-Src),phosphorylation enrichment (Fes),phosphorylation enrichment (Fyn),phosphorylation enrichment (c-Abl (mouse)),SH2 binding enrichment (SHP2-C SH2),SH2 binding enrichment (Grb2 SH2),SH2 binding enrichment (c-Src SH2)
ERQIRYLNHQL [CEP152_Y268],0.354,0.412,0.39,0.557,0.4,0.373,0.413,0.347,0.382,0.399,0.527,0.396,0.523,0.683,0.842,0.512
ESDFTYSSSFE [SRPK2_Y427_YF],0.537,0.53,0.723,1.03,0.752,0.531,1.02,0.536,0.438,1.08,1.09,0.821,0.614,0.747,0.735,0.572
ESMLRYDVFGG [STOX1_Y607_E608D_YF],0.631,0.508,0.685,0.933,0.619,0.445,0.91,0.536,2.37,1.1,0.846,0.636,0.582,0.627,1.1,1.56
ETKKQYDSFTY [TMED3_Y85],0.493,0.5,0.581,0.735,0.54,0.397,0.656,0.542,0.524,0.604,0.828,0.531,0.639,0.714,0.772,1
EVDGLYREAPI [MYL12B_Y143_E141G],0.527,0.629,0.718,0.879,0.536,0.503,0.83,0.504,0.443,0.482,0.976,0.488,0.662,1.07,0.753,0.528
FAAAGYGSLEA [EPHA10_Y959],0.485,0.507,0.535,0.86,0.436,0.403,0.675,0.487,0.469,1.14,0.844,0.443,0.747,0.701,0.926,0.515
FADIAYNYRHA [PAH_Y166_G171A],0.437,0.322,0.542,0.578,0.415,0.593,0.648,0.424,0.466,0.503,0.779,0.425,0.474,0.681,0.852,0.549
FAKTQYPDVFA [CRX_Y63_YF],0.45,0.454,0.525,0.876,0.483,0.469,0.724,0.388,0.38,0.351,0.74,0.364,0.478,0.544,0.803,0.486
FAKTQYPDVYA [CRX_Y63],0.526,0.533,0.478,0.628,0.653,0.474,0.52,0.4,0.346,0.486,0.692,0.469,0.652,1,0.963,0.418
FDDIAHIRKTL [PIK3CA_Y1021_Y1021H],0.529,0.529,0.515,0.688,0.553,0.51,0.854,0.433,0.416,0.389,0.844,0.538,0.611,0.566,0.805,0.435
FEAMEYLESKQ [BTK_Y511_C506Y_YF],0.682,0.527,0.993,1.24,0.567,0.534,1.17,0.543,0.474,0.427,1.36,0.499,0.966,0.635,0.641,0.484
FETSHYPASPD [CTNND2_Y1217_YF],0.408,0.475,0.508,0.52,0.435,0.483,0.553,0.486,0.323,0.31,0.77,0.361,0.463,0.992,1.03,0.383
FFRKFYNKSED [RYR1_Y4864],0.57,0.484,0.562,0.794,0.41,0.386,0.622,0.353,0.424,0.388,0.718,0.458,0.421,0.613,0.51,0.264
FFRNVYHLASV [RBL1_Y796_K794N_YF],0.515,0.486,0.532,0.803,0.596,0.509,0.575,0.403,0.404,0.862,0.763,1.25,0.51,0.629,0.563,1.79
FGLDRYQCDCT [PTGS1_Y54],0.613,0.587,0.861,1.1,0.499,0.625,0.874,0.492,0.454,0.422,1.23,0.524,0.796,0.849,1.01,0.942
FGLQAYTKVKT [ALDH2_Y502_E504K_YF],0.644,0.472,0.877,1.12,0.513,0.763,1.33,0.476,0.447,0.442,1.23,0.546,0.799,1.65,0.744,1.38
FHKALYTVRTY [PDE6C_Y266_S270T],0.645,0.655,0.774,0.964,0.725,0.774,1.16,0.542,0.519,0.596,1.26,0.599,0.964,0.725,0.768,0.481

Sequence,phosphorylation enrichment (EPHB2),phosphorylation enrichment (FGFR1),phosphorylation enrichment (FGFR3),phosphorylation enrichment (AncSZ),phosphorylation enrichment (Hck),phosphorylation enrichment (EPHB1),phosphorylation enrichment (Jak2),phosphorylation enrichment (Fer (mouse)),phosphorylation enrichment (MERTK),phosphorylation enrichment (c-Src),phosphorylation enrichment (Fes),phosphorylation enrichment (Fyn),phosphorylation enrichment (c-Abl (mouse)),SH2 binding enrichment (SHP2-C SH2),SH2 binding enrichment (Grb2 SH2),SH2 binding enrichment (c-Src SH2)
FIAVGYVDDTQ [HLA-A_Y51],0.499,0.505,0.553,0.822,0.509,0.453,0.782,0.429,0.415,0.49,0.949,0.406,0.668,0.967,1.05,0.625
FITVGYVDDTQ [HLA-B_Y51_S48T],0.611,0.658,0.741,0.999,0.517,0.681,0.877,0.528,0.482,0.432,1.21,0.529,0.898,1.1,0.779,0.736
FKDGQYWIRGR [ACSF3_Y466],0.369,0.361,0.482,0.78,0.614,0.317,0.671,0.387,0.379,0.501,0.862,0.448,0.491,0.359,0.825,0.46
FKDGQYWIRGW [ACSF3_Y466_R471W],0.624,0.609,0.551,0.998,0.799,0.624,0.927,0.372,0.345,0.534,1.13,0.513,0.636,0.733,0.87,0.47
FKIFRYTLNDN [FN1_Y1975_L1974R_YF],0.525,0.529,0.589,1.02,0.464,0.518,1.01,0.403,0.377,0.36,1.03,0.42,0.614,0.958,1.02,0.548
FLAATYPTVGQ [NF1_Y2508_YF],0.494,0.357,0.523,0.548,0.518,0.444,0.404,0.593,0.396,0.426,0.634,0.435,0.401,0.888,0.835,0.57
FLEEEYVKAVG [TF_Y674_G671E_YF],0.67,0.517,0.721,1.19,0.517,0.59,1.18,0.49,0.424,0.528,1.16,0.558,0.679,0.934,1.08,0.569
FLKDVYVDSKD [NDUFAF4_Y69],0.512,0.488,0.731,1.11,0.707,0.459,0.855,0.557,0.471,0.471,0.983,0.48,0.66,0.749,0.848,0.413
FLQTDDTSQVS [FRMPD1_Y846_Y846D],0.648,0.445,0.645,1.05,0.587,0.632,0.99,0.49,0.622,0.476,1.12,0.481,1.07,0.66,0.798,0.457
FLRTGYSVPFG [TGM1_Y370_YF],0.515,0.504,0.632,0.875,0.461,0.523,0.929,0.466,0.561,0.53,0.955,0.729,0.945,1.62,0.885,5.53
FLTQHYDAIPQ [ANG_Y38_K41I],0.51,0.639,0.866,0.885,2.88,0.715,0.608,9.86,2.46,0.678,0.855,0.586,0.611,0.927,0.809,13.9
FMGVEYSSCDT [EPHA3_Y937_T933M],0.756,0.601,0.838,1.32,0.61,0.683,1.2,0.64,0.479,0.521,1.31,0.441,0.827,0.588,0.598,1.43
FNNPAYYVLEG [INPPL1_Y986],0.704,12.1,9.49,1.2,1.11,0.851,4.76,0.485,7.95,2.06,0.958,1.75,0.767,1.12,0.992,3.95
FPHVISARLWR [SMAD4_Y95_Y95S],0.547,0.477,0.557,1,0.429,0.419,0.805,0.524,0.458,0.498,0.962,0.581,0.701,1.08,1.11,0.468
FRIGPYQPNVP [MATR3_Y784_YF],0.514,0.538,0.736,0.773,0.484,0.477,0.78,0.446,0.532,0.506,0.966,0.45,0.631,0.754,0.844,0.634
FSCLPYRRLAF [SLC52A2_Y305_G306R_YF],0.589,0.478,0.568,0.992,0.432,0.428,0.806,0.411,0.531,0.902,0.826,0.559,0.63,0.852,0.677,0.47
